Test results as given in the supplement of paper PMC10126150.
± gives the standard deviation of the averaged measurements.

System: ATP
Test: switch fluorescence ratio, 500 uM ATP over buffer (Cy3 cluster intensity, sum of 5 cycles each) (fold (ratio)); higher = stronger signal-on switching upon ATP binding; sequences stand for … in TCGTCGGCAGCGTCAGATGTGTATAAGAGACAGTTTTTTTTTTTTTTTTTTTTTTTTT…TC
Conditions: aptamer strand: ATP DNA aptamer (quencher-CACCTGGGGGAGTATTGCGGAGGAAGG + anchor), 100 nM annealed; ATP concentration: 500 uM
Outline: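 Cy3-labelled switching-strand clusters on a modified Illumina MiSeq flow-cell were annealed to 100 nM quencher-labelled ATP aptamer and imaged first in selection buffer, then after 15 min with 500 uM ATP at 22 °C. NaOH stripping and re-annealing separated each of five buffer/ATP cycles, and clusters outside 100-1000 RFU were excluded. The fluorescence ratio sums target-cycle Cy3 intensity over buffer-cycle Cy3 intensity per cluster and averages it per switch-domain sequence.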
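Note: ATP exposure 15 min at 22 °C before imaging.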

GGGTCTAAGG
switch fluorescence ratio: 1.007 ± 0.0045

GGGTCTAGGA
switch fluorescence ratio: 1.006 ± 0.0052

GGGTCTCGAG
switch fluorescence ratio: 0.9866 ± 0.0096

GGGTCTGGTG
switch fluorescence ratio: 1.04 ± 0.057

GGGTCTGGTT
switch fluorescence ratio: 0.976 ± 0.033

GGGTGAAAAG
switch fluorescence ratio: 1.04 ± 0.033

GGGTGAAGAA
switch fluorescence ratio: 0.967 ± 0.019

GGGTGAAGGC
switch fluorescence ratio: 0.971 ± 0.058

GGGTGAGCTG
switch fluorescence ratio: 0.98 ± 0.04

GGGTGAGGCG
switch fluorescence ratio: 0.981 ± 0.038

GGGTGAGGGT
switch fluorescence ratio: 0.993 ± 0.015

GGGTGAGGTT
switch fluorescence ratio: 0.997 ± 0.021

GGGTGAGTAG
switch fluorescence ratio: 1.02 ± 0.067

GGGTGATGGT
switch fluorescence ratio: 0.964 ± 0.053

GGGTGATTGA
switch fluorescence ratio: 0.988 ± 0.021

GGGTGCCGGT
switch fluorescence ratio: 1.01 ± 0.024

GGGTGCTGCT
switch fluorescence ratio: 0.954 ± 0.033

GGGTGGAATT
switch fluorescence ratio: 1.005 ± 0.0092

GGGTGGATGT
switch fluorescence ratio: 1.01 ± 0.012

GGGTGGCATT
switch fluorescence ratio: 0.957 ± 0.0032

GGGTGGCGTG
switch fluorescence ratio: 0.981 ± 0.082

GGGTGGGCCA
switch fluorescence ratio: 0.969 ± 0.035

GGGTGGGGCA
switch fluorescence ratio: 1.01 ± 0.045

GGGTGGGTGG
switch fluorescence ratio: 0.989 ± 0.017

GGGTGTAATC
switch fluorescence ratio: 1.01 ± 0.024

GGGTGTAGCC
switch fluorescence ratio: 1.04 ± 0.037

GGGTGTAGTT
switch fluorescence ratio: 0.999 ± 0.036

GGGTGTGAGG
switch fluorescence ratio: 0.983 ± 0.025

GGGTGTTCGT
switch fluorescence ratio: 1.004 ± 0.0028

GGGTGTTGTC
switch fluorescence ratio: 1.006 ± 0.01

GGGTGTTTGT
switch fluorescence ratio: 1 ± 0.018

GGGTGTTTTG
switch fluorescence ratio: 0.996 ± 0.013

GGGTTAAAAC
switch fluorescence ratio: 1.01 ± 0.043

GGGTTAAACT
switch fluorescence ratio: 0.987 ± 0.023

GGGTTAGGGG
switch fluorescence ratio: 1.01 ± 0.04

GGGTTATAGG
switch fluorescence ratio: 0.978 ± 0.025

GGGTTATGCT
switch fluorescence ratio: 0.99 ± 0.046

GGGTTCAGAG
switch fluorescence ratio: 1 ± 0.042

GGGTTCCTAG
switch fluorescence ratio: 1.01 ± 0.041

GGGTTCTCTC
switch fluorescence ratio: 0.98 ± 0.011

GGGTTCTTTG
switch fluorescence ratio: 1.03 ± 0.064

GGGTTGACCC
switch fluorescence ratio: 0.993 ± 0.024

GGGTTGACGC
switch fluorescence ratio: 1.01 ± 0.013

GGGTTGCTAC
switch fluorescence ratio: 1.02 ± 0.017

GGGTTGGCTA
switch fluorescence ratio: 0.964 ± 0.047

GGGTTGGCTG
switch fluorescence ratio: 0.989 ± 0.048

GGGTTGGGGG
switch fluorescence ratio: 1 ± 0.032

GGGTTGGGGT
switch fluorescence ratio: 0.997 ± 0.041

GGGTTGTATG
switch fluorescence ratio: 0.997 ± 0.038

GGGTTGTCCG
switch fluorescence ratio: 1.05 ± 0.07

GGGTTGTCGT
switch fluorescence ratio: 1.01 ± 0.062

GGGTTGTGAT
switch fluorescence ratio: 0.984 ± 0.014

GGGTTTAAGT
switch fluorescence ratio: 0.986 ± 0.023

GGGTTTAATC
switch fluorescence ratio: 1.08 ± 0.077

GGGTTTACCT
switch fluorescence ratio: 1.05 ± 0.051

GGGTTTAGCG
switch fluorescence ratio: 1.014 ± 0.0022

GGGTTTAGGG
switch fluorescence ratio: 1 ± 0.045

GGGTTTATGA
switch fluorescence ratio: 0.98 ± 0.04

GGGTTTCACG
switch fluorescence ratio: 0.983 ± 0.023

GGGTTTGAGC
switch fluorescence ratio: 0.981 ± 0.033

GGGTTTGGCT
switch fluorescence ratio: 1.01 ± 0.029

GGGTTTGTTA
switch fluorescence ratio: 1 ± 0.018

GGGTTTGTTT
switch fluorescence ratio: 1.02 ± 0.046

GGGTTTTATC
switch fluorescence ratio: 0.999 ± 0.035

GGGTTTTCGG
switch fluorescence ratio: 0.987 ± 0.026

GGGTTTTGGA
switch fluorescence ratio: 0.998 ± 0.039

GGGTTTTTAG
switch fluorescence ratio: 0.994 ± 0.033

GGTAAACGGA
switch fluorescence ratio: 1.02 ± 0.044

GGTAAAGGGG
switch fluorescence ratio: 0.991 ± 0.058

GGTAAATTTT
switch fluorescence ratio: 1 ± 0.018

GGTAACATTT
switch fluorescence ratio: 1.061 ± 0.0053

GGTAACGGGG
switch fluorescence ratio: 1.06 ± 0.065

GGTAACTTGG
switch fluorescence ratio: 1.01 ± 0.034

GGTAATATTA
switch fluorescence ratio: 1.07 ± 0.051

GGTAATTGTG
switch fluorescence ratio: 0.987 ± 0.016

GGTAATTGTT
switch fluorescence ratio: 0.998 ± 0.025

GGTACATGGG
switch fluorescence ratio: 0.975 ± 0.021
